Measured values as given in the supplement of paper PMC9732359.
± gives the uncertainty stated by the source.

Test: protein stability index of a GFP-peptide fusion (yeast GPS) (PSI 1-4); higher = more stable; sorted into four equal gates, so the index is relative within each strain
How it was run: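 Yeast carrying a pooled library were grown to mid-log phase in leucine-free medium. Each library plasmid expresses Cherry and has a tiled 17-residue yeast protein peptide fused downstream of GFP. Cells were sorted into four equal gates by GFP/Cherry ratio, and plasmids from each gate were PCR-amplified, Illumina-sequenced and assigned to strains by barcode. Summing, across gates, the read frequency times the gate number gave each peptide's protein stability index.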

TSKSLVKRYRLAPTQLS [SIN4]
protein stability index (doa10∆): 2.63 ± 0.06
protein stability index (pdr5∆): 2.26 ± 0.051
protein stability index (san1∆): 2.11 ± 0.077
protein stability index (ubr1∆): 2.66 ± 0.037

TSMTGDANLLEEGETSR [SWI3]
protein stability index (doa10∆): 3.2 ± 0.092
protein stability index (pdr5∆): 3.35 ± 0.097
protein stability index (san1∆): 3.2 ± 0.037
protein stability index (ubr1∆): 3.3 ± 0.041

TSNWEIYKPLLFEIVSN [SRB8]
protein stability index (doa10∆): 1.59 ± 0.062
protein stability index (pdr5∆): 2.05 ± 0.066
protein stability index (san1∆): 2.11 ± 0.14
protein stability index (ubr1∆): 1.23 ± 0.08

TSPEKKDGGDKPPSSAF [YAR002W/NUP60]
protein stability index (doa10∆): 3.42 ± 0.13
protein stability index (pdr5∆): 3.34 ± 0.075
protein stability index (san1∆): 3.3 ± 0.081
protein stability index (ubr1∆): 3.72 ± 0.11

TSPLYMDPGAPLPVETP [SSN2]
protein stability index (doa10∆): 3.09 ± 0.12
protein stability index (pdr5∆): 2.82 ± 0.12
protein stability index (san1∆): 2.75 ± 0.17
protein stability index (ubr1∆): 2.81 ± 0.11

TSPQYIPSPLSSTKPPG [NUT1]
protein stability index (doa10∆): 2.51 ± 0.039
protein stability index (pdr5∆): 2.42 ± 0.034
protein stability index (san1∆): 2.4 ± 0.048
protein stability index (ubr1∆): 2.45 ± 0.029

TSQYGTPSTETAASVFK [PRE3]
protein stability index (doa10∆): 1.71 ± 0.046
protein stability index (pdr5∆): 2.29 ± 0.042
protein stability index (san1∆): 2.1 ± 0.047
protein stability index (ubr1∆): 2.27 ± 0.045

TTIDSLNAELESKLIPQ [SMC3]
protein stability index (doa10∆): 3.06 ± 0.12
protein stability index (pdr5∆): 3.03 ± 0.085
protein stability index (san1∆): 2.46 ± 0.14
protein stability index (ubr1∆): 3.1 ± 0.066

TTLKSVTIASEIYYDPD [RPO21]
protein stability index (doa10∆): 2.75 ± 0.1
protein stability index (pdr5∆): 2.45 ± 0.085
protein stability index (san1∆): 2.82 ± 0.099
protein stability index (ubr1∆): 2.24 ± 0.055

TTLNEMFRYKTNLYKLK [PUP3]
protein stability index (doa10∆): 3.06 ± 0.14
protein stability index (pdr5∆): 2.66 ± 0.11
protein stability index (san1∆): 1.76 ± 0.13
protein stability index (ubr1∆): 2.08 ± 0.1

TTNMNVNNCIWALKSSL [RGR1]
protein stability index (doa10∆): 2.26 ± 0.068
protein stability index (pdr5∆): 1.32 ± 0.065
protein stability index (san1∆): 1.36 ± 0.21
protein stability index (ubr1∆): 1.25 ± 0.046

TTRVGGGGAARRQAVDV [RPS5]
protein stability index (doa10∆): 1.61 ± 0.26
protein stability index (pdr5∆): 1.63 ± 0.12
protein stability index (san1∆): 1.73 ± 0.28
protein stability index (ubr1∆): 1.82 ± 0.17

TTTKIIDSTDHIRKASS [LRP1]
protein stability index (doa10∆): 2.19 ± 0.048
protein stability index (pdr5∆): 2.07 ± 0.039
protein stability index (san1∆): 1.64 ± 0.066
protein stability index (ubr1∆): 2.32 ± 0.038

TTTSNTSGTNIAGTFNV [YOR098C/NUP1]
protein stability index (doa10∆): 3 ± 0.05
protein stability index (pdr5∆): 2.54 ± 0.037
protein stability index (san1∆): 2.5 ± 0.051
protein stability index (ubr1∆): 2.24 ± 0.028

TTTTTTTNNNNTNNNNT [SWI1]
protein stability index (doa10∆): 3.18 ± 0.034
protein stability index (pdr5∆): 3.18 ± 0.05
protein stability index (san1∆): 3.303 ± 0.021
protein stability index (ubr1∆): 3.465 ± 0.024

TVAHIQYDFKAVLEEND [RPN14]
protein stability index (doa10∆): 1.95 ± 0.12
protein stability index (pdr5∆): 2.72 ± 0.2
protein stability index (san1∆): 2.26 ± 0.11
protein stability index (ubr1∆): 2.28 ± 0.24

TVALREIRRFQKSTELL [HHT1]
protein stability index (doa10∆): 2.99 ± 0.098
protein stability index (pdr5∆): 2.91 ± 0.087
protein stability index (san1∆): 3.07 ± 0.068
protein stability index (ubr1∆): 3.02 ± 0.078

TVKLTEIVWTSSLIKAG [RPO31]
protein stability index (doa10∆): 1.48 ± 0.058
protein stability index (pdr5∆): 1.69 ± 0.067
protein stability index (san1∆): 1.24 ± 0.14
protein stability index (ubr1∆): 1.24 ± 0.063

TVLVIDNSEYSRNGDFP [RPN10]
protein stability index (doa10∆): 2.44 ± 0.058
protein stability index (pdr5∆): 2.73 ± 0.066
protein stability index (san1∆): 1.48 ± 0.098
protein stability index (ubr1∆): 2.44 ± 0.041

TVNEPQMSDKHATVVPP [SRB7]
protein stability index (doa10∆): 2.73 ± 0.12
protein stability index (pdr5∆): 2.83 ± 0.11
protein stability index (san1∆): 2.89 ± 0.093
protein stability index (ubr1∆): 3.07 ± 0.092

TVPNLPTTMVTNQKDTN [ISW2]
protein stability index (doa10∆): 1.29 ± 0.046
protein stability index (pdr5∆): 1.84 ± 0.053
protein stability index (san1∆): 1.51 ± 0.1
protein stability index (ubr1∆): 1.75 ± 0.051

TVQSWLCDLFVNGSITD [NUT1]
protein stability index (doa10∆): 1.46 ± 0.038
protein stability index (pdr5∆): 1.45 ± 0.048
protein stability index (san1∆): 1.48 ± 0.086
protein stability index (ubr1∆): 1.23 ± 0.043

TVSPDFVAATTNAGYTI [FAS1]
protein stability index (doa10∆): 2.71 ± 0.065
protein stability index (pdr5∆): 2.71 ± 0.053
protein stability index (san1∆): 2.32 ± 0.12
protein stability index (ubr1∆): 2.56 ± 0.058

TVSPTQDKDAIRKQPDD [SIR2]
protein stability index (doa10∆): 2.99 ± 0.076
protein stability index (pdr5∆): 3.11 ± 0.087
protein stability index (san1∆): 2.99 ± 0.067
protein stability index (ubr1∆): 2.9 ± 0.096

TWENEFLDSQRVWAEYA [PRP8]
protein stability index (doa10∆): 2.14 ± 0.088
protein stability index (pdr5∆): 2.27 ± 0.072
protein stability index (san1∆): 2.13 ± 0.11
protein stability index (ubr1∆): 2.89 ± 0.11

TWNGSPFDNSTEEKCKN [YJL039C/NUP192]
protein stability index (doa10∆): 3.1 ± 0.084
protein stability index (pdr5∆): 3.38 ± 0.081
protein stability index (san1∆): 3.26 ± 0.066
protein stability index (ubr1∆): 3.33 ± 0.073

TWYVGNSRGKFDDACNQ [SSN2]
protein stability index (doa10∆): 3.43 ± 0.19
protein stability index (pdr5∆): 3.14 ± 0.12
protein stability index (san1∆): 2.9 ± 0.11
protein stability index (ubr1∆): 3.26 ± 0.16

TYGFSILDIVINNPVNL [FAS1]
protein stability index (doa10∆): 2.07 ± 0.087
protein stability index (pdr5∆): 2.37 ± 0.075
protein stability index (san1∆): 2.53 ± 0.092
protein stability index (ubr1∆): 3.02 ± 0.074

TYIKSEITQQEKGLNEL [SMC4]
protein stability index (doa10∆): 1.88 ± 0.066
protein stability index (pdr5∆): 1.7 ± 0.059
protein stability index (san1∆): 2.75 ± 0.092
protein stability index (ubr1∆): 1.55 ± 0.051

TYRSRAQQVPPYGVYHP [SIN4]
protein stability index (doa10∆): 2.77 ± 0.1
protein stability index (pdr5∆): 2.13 ± 0.085
protein stability index (san1∆): 2.8 ± 0.063
protein stability index (ubr1∆): 2.71 ± 0.078

VAAAGITASTLLYADSL [CYT1]
protein stability index (doa10∆): 1.89 ± 0.068
protein stability index (pdr5∆): 2.12 ± 0.078
protein stability index (san1∆): 1.75 ± 0.14
protein stability index (ubr1∆): 1.93 ± 0.078

VAAFVNNYPNVELTYSL [BRR2]
protein stability index (doa10∆): 2.61 ± 0.11
protein stability index (pdr5∆): 2.82 ± 0.087
protein stability index (san1∆): 2.74 ± 0.082
protein stability index (ubr1∆): 2.9 ± 0.087

VAALKAVGAHSDLLKVL [RPL4A]
protein stability index (doa10∆): 3.21 ± 0.093
protein stability index (pdr5∆): 3.16 ± 0.11
protein stability index (san1∆): 2.71 ± 0.1
protein stability index (ubr1∆): 2.83 ± 0.059

VAALRFTAGARAKIVKA [RPL18A]
protein stability index (doa10∆): 1.31 ± 0.089
protein stability index (pdr5∆): 1.4 ± 0.069
protein stability index (san1∆): 1.24 ± 0.2
protein stability index (ubr1∆): 1.18 ± 0.1

VAASIIPFPDHNQSPRN [RPB2]
protein stability index (doa10∆): 2.37 ± 0.09
protein stability index (pdr5∆): 2.21 ± 0.076
protein stability index (san1∆): 2.33 ± 0.12
protein stability index (ubr1∆): 2.63 ± 0.078

VADEEANIELTWAEGTF [RPC37]
protein stability index (doa10∆): 2.06 ± 0.067
protein stability index (pdr5∆): 2.98 ± 0.087
protein stability index (san1∆): 1.81 ± 0.097
protein stability index (ubr1∆): 2.52 ± 0.071

VAEIEKTADVKRQYVKQ [RPL20A]
protein stability index (doa10∆): 3.33 ± 0.13
protein stability index (pdr5∆): 3.2 ± 0.088
protein stability index (san1∆): 2.94 ± 0.13
protein stability index (ubr1∆): 3.1 ± 0.079

VAIDQDKITLHDEKTLA [SIR4]
protein stability index (doa10∆): 2.01 ± 0.097
protein stability index (pdr5∆): 2.22 ± 0.096
protein stability index (san1∆): 2.26 ± 0.17
protein stability index (ubr1∆): 2.71 ± 0.08

VAMCFVINKLDRLILDL [SNU114]
protein stability index (doa10∆): 2.23 ± 0.055
protein stability index (pdr5∆): 2.24 ± 0.056
protein stability index (san1∆): 2.15 ± 0.096
protein stability index (ubr1∆): 2.77 ± 0.04

VARIPRVGGGGTGRSGQ [RPL4A]
protein stability index (doa10∆): 3.46 ± 0.15
protein stability index (pdr5∆): 3.39 ± 0.13
protein stability index (san1∆): 3.48 ± 0.072
protein stability index (ubr1∆): 2.57 ± 0.086

VASADYESQTFSSKNEW [PRP8]
protein stability index (doa10∆): 2.83 ± 0.098
protein stability index (pdr5∆): 3.4 ± 0.19
protein stability index (san1∆): 2.85 ± 0.18
protein stability index (ubr1∆): 2.89 ± 0.13

VASLSKRNKLLTIFDSV [YJL039C/NUP192]
protein stability index (doa10∆): 1.98 ± 0.059
protein stability index (pdr5∆): 1.93 ± 0.048
protein stability index (san1∆): 2.28 ± 0.063
protein stability index (ubr1∆): 1.89 ± 0.048

VATEPLLDILVKGETRI [PRP8]
protein stability index (doa10∆): 2.43 ± 0.057
protein stability index (pdr5∆): 2.41 ± 0.044
protein stability index (san1∆): 2.94 ± 0.06
protein stability index (ubr1∆): 1.8 ± 0.032

VCIRPSVMMQDSPASNE [RPO31]
protein stability index (doa10∆): 1.63 ± 0.085
protein stability index (pdr5∆): 2.08 ± 0.1
protein stability index (san1∆): 1.94 ± 0.11
protein stability index (ubr1∆): 2.06 ± 0.099

VDAITRCYQPFELFDNK [SNU114]
protein stability index (doa10∆): 3 ± 0.073
protein stability index (pdr5∆): 3.06 ± 0.068
protein stability index (san1∆): 2.96 ± 0.049
protein stability index (ubr1∆): 3 ± 0.068

VDFEKFETFLVDVNNKF [SIN4]
protein stability index (doa10∆): 3.23 ± 0.07
protein stability index (pdr5∆): 3.34 ± 0.059
protein stability index (san1∆): 3.51 ± 0.037
protein stability index (ubr1∆): 3.31 ± 0.052

VDIQIINQYQLLYNLKN [SWI1]
protein stability index (doa10∆): 1.68 ± 0.031
protein stability index (pdr5∆): 1.54 ± 0.041
protein stability index (san1∆): 1.49 ± 0.086
protein stability index (ubr1∆): 1.33 ± 0.033

VDKNGAHLYMLEPSGSY [PRE10]
protein stability index (doa10∆): 2.04 ± 0.057
protein stability index (pdr5∆): 2.19 ± 0.064
protein stability index (san1∆): 2.92 ± 0.063
protein stability index (ubr1∆): 2.52 ± 0.058

VDNDNWVYKTKGDGMTS [RPN1]
protein stability index (doa10∆): 3.12 ± 0.1
protein stability index (pdr5∆): 3.27 ± 0.065
protein stability index (san1∆): 3 ± 0.071
protein stability index (ubr1∆): 3.1 ± 0.11

VDNIVNKYQYSLKQYAG [SRP68]
protein stability index (doa10∆): 3.09 ± 0.084
protein stability index (pdr5∆): 3.08 ± 0.076
protein stability index (san1∆): 2.71 ± 0.068
protein stability index (ubr1∆): 2.99 ± 0.055

VDNVTLESYKTQAKKLY [SRP72]
protein stability index (doa10∆): 3.02 ± 0.11
protein stability index (pdr5∆): 2.87 ± 0.14
protein stability index (ubr1∆): 2.89 ± 0.11

VDPFDSDEEESVLDEQE [SNU114]
protein stability index (doa10∆): 3.36 ± 0.095
protein stability index (pdr5∆): 3.5 ± 0.12
protein stability index (san1∆): 3.39 ± 0.15
protein stability index (ubr1∆): 3.36 ± 0.073

VDQEMLYEIILAANYLN [SKP1]
protein stability index (doa10∆): 1.63 ± 0.051
protein stability index (pdr5∆): 1.72 ± 0.05
protein stability index (san1∆): 1.92 ± 0.093
protein stability index (ubr1∆): 1.84 ± 0.057
